Key:
Test in all cases: cell-based or functional assay
[1] = target: human IL-17A, untagged, E. coli derived (in house or Peprotech) (human) (UniProt Q16552)
[2] = target: cynomolgus IL-17A (cynomolgus)
[3] = target: human IL-17A derived from the HEK-EBNA expression system (human) (UniProt Q16552)
Chain of human IL-17A derived from the HEK-EBNA expression system (human) (Q16552 24-155): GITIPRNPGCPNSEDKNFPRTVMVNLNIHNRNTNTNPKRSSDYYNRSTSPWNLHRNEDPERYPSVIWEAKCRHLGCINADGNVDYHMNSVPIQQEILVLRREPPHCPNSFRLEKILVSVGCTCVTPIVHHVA

Chain of human IL-17A, untagged, E. coli derived (in house or Peprotech) (human) (Q16552 24-155): as above
Chain of cynomolgus IL-17A (cynomolgus) (Q16552 other isoform, or with tags, fused parts or gaps limits assumed): as the sequence (Q16552 24-155) above, with T3A, P8S, N34S, I77V, N78K, P104R counted along it

Substance	OA synovial fibroblast IL-8 (IL-17A 1 ng/ml + TNF 0.01 ng/ml), % Inhibition at 50 nM antibody [1]	OA synovial fibroblast IL-8 (IL-17A 10 ng/ml + TNF 1 ng/ml), % Inhibition at 50 nM antibody [1]	cartilage explant IL-6 (IL-17A 10 ng/ml + TNF 1 ng/ml), % inhibition at 50 nM antibody [1]	cartilage explant IL-6 (pg/ml), mean, IL-17A 10 ng/ml + TNF 1 ng/ml + antibody (55.00 pg/ml without antibody) [1]	HT1080 IL-6 release, IgG IC50 [2]	HT1080 IL-6 release, IgG IC50 [3]
hIgG1 isotype control (human IgG1 CAT002, Cambridge Antibody Technology Limited)	-1.3%	-3.9%	3.3%	53.2 pg/mL		
mAb317 (R & D Systems) (antibody)					14.1 nM	3.2 nM
mIgG1 isotype control (mouse IgG1, R & D Systems) (antibody)			13.8%	47.4 pg/mL		
